14 molecules from article PMC8977021, “bZIP transcription factors PcYap1 and PcRsmA link oxidative stress response to secondary metabolism and development in Penicillium chrysogenum” can be followed below.

Changes are numbered by the printed parent chain.

Data set [1] concerns the target T1, PcRsmA (Penicillium chrysogenum Wis54-1255 (P. rubens Wis54-1255)) (UniProt B6GZ21).
T1 sequence: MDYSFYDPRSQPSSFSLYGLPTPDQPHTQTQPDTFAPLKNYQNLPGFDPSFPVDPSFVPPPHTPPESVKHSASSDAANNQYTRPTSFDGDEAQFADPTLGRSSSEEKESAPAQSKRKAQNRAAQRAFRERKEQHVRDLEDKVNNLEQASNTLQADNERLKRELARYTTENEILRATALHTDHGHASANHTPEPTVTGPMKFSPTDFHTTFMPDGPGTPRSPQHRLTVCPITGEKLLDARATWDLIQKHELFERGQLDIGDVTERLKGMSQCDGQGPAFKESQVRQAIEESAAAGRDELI
Kind of data set: EMSA. The settings on record: LightShift binding buffer 1X, about 10% glycerol, 5 mM MgCl2, 20 fmol biotin probe, 10 ug protein, 20 uL, room temperature 20 min; 5% native PAGE in 0.5X TBE …. On the technique in general: Mobility shift assays separate free from complexed probe on a gel.

Data set [2] deals with T2, PcYap1 (Penicillium chrysogenum Wis54-1255 (P. rubens Wis54-1255)) (UniProt B6HDY4).
T2 sequence: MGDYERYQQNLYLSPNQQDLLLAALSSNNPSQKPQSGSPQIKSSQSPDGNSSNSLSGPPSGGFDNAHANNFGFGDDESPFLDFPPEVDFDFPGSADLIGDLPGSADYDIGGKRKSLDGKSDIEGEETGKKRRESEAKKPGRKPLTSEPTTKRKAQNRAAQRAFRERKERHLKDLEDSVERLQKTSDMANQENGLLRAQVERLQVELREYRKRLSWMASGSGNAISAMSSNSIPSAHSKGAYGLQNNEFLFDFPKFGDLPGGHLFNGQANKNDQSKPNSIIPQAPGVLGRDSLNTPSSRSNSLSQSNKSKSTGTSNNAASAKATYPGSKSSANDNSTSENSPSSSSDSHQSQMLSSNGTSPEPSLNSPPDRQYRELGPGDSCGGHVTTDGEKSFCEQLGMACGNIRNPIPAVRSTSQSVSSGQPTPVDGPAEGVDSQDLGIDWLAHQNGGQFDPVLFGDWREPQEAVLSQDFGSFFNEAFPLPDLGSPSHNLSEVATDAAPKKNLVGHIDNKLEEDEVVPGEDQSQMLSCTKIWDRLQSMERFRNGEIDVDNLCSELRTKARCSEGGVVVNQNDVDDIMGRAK
The data set can be described thus: EMSA. The note with it: LightShift binding buffer 1X, about 10% glycerol, 5 mM MgCl2, 20 fmol biotin probe, 10 ug protein, 20 uL, room temperature 20 min; 5% native PAGE in 0.5X TBE ….

The next data set concerns the target T3, PcRsmA (Penicillium chrysogenum Wis54-1255 (P. …, UniProt B6GZ21 1-299)).
T3 sequence: T1 sequence
The data set can be described thus: EMSA; LightShift binding buffer 1X, about 10% glycerol, 5 mM MgCl2, 20 fmol biotin probe, 10 ug protein, 20 uL, room temperature 20 min; 5% native PAGE in 0.5X TBE; pH and salt not given. The note with it: protein: recombinant; tags: C-terminal c-myc-6xHis; chain copies: 2; label: 3' biotin; blunt.

A further data set has as its target T4, PcYap1 (Penicillium chrysogenum Wis54-1255 (P. …, UniProt B6HDY4 1-582)).
T4 sequence: T2 sequence
The data set is described as above. The settings on record: protein: recombinant; tags: C-terminal c-myc-6xHis; chain copies: 2; label: 3' biotin; blunt.

“AACATCGCCGTCGTTGAGTGCACGTTGCCTACTCTCTCGTGGCTTGGCTGGGCCCACGAGCCCGATTGACTCGACGGTGTTACTTGGGTATCTATGGCCCCGTTTTCTGGCACGGTAATGATAAGTACTTACTAGTCTTCGAGCGGGGGAGTGTTGCTCTGCCCGAGCATCAACGATTGGCCTGA (double strand) [probe 4]”: the binding entry in data set [1] and in data set [2] was “no binding” throughout.
Regarding “TGTTTATGCTGAGACAACCTGGAGACATTATACGCTTGCAGCCCAGATGCTTACTGGATGGGGCCGCTGGAGCCAGTGTAAAATTAGTAACCGTATCTCGAAGTCGGAGGGTCTTTGGTGGTCTGAGATTTCAGTCGGTCCGCACCGTGGCATTTGCAGACGGTGCGATCAGGCCAATCGTTGATGCTCGG (double strand) [probe 5]”, the binding result in data set [1] and in data set [2] was “binds” in each case.
“CCGAGCATCAACGATTGGCCTGATCGCACCGTCTGCAAATGCCACGGTGCGGACCGACTGAAATCTCAGACCACCAAAGACCCTCCGACTTCGAGATACGG (double strand) [dwPta1]”: in data set [1], the binding result is listed as “no binding”.

B1: PTA1-M1 (dsDNA)
DNA 1: GCCAGTGTAAAACTAGTCACCGTATCTC
DNA 2: GAGATACGGTGACTAGTTTTACACTGGC
Regarding B1, the binding result with PcRsmA and in the data set with PcYap1 was “no binding” throughout.

B2: RsmA-2A (dsDNA)
DNA 1: CAGTAAGCATCTGGGCTGCAAGCGTATA
DNA 2: TATACGCTTGCAGCCCAGATGCTTACTG
Regarding B2, in the data set with PcRsmA, the binding result was “no binding”.

B3: RsmA-2C (dsDNA)
DNA 1: CTCCAGGTTGTCTCAGCATAAACA
DNA 2: TGTTTATGCTGAGACAACCTGGAG
As for B3, in the data set with PcRsmA, the binding result is “binds”.

B4: RsmA-2 (dsDNA)
DNA 1: CAGTAAGCATCTGGGCTGCAAGCGTATAATGTCTCCAGGTTGTCTCAGCATAAACA
DNA 2: TGTTTATGCTGAGACAACCTGGAGACATTATACGCTTGCAGCCCAGATGCTTACTG
Consider B4, for which the binding result in the data set with PcRsmA is “binds”.

B5: penDE-CRE123 (dsDNA)
DNA 1: AGGTCCTGCATTAGCGTACGCCCCAGGTTTAGATCAAAGTTACGTAATTTATATGTA
DNA 2: TACATATAAATTACGTAACTTTGATCTAAACCTGGGGCGTACGCTAATGCAGGACCT
On to B5, for which the binding result with PcRsmA is recorded as “binds”; with PcYap1, “no binding”.

B6: penDE-CRE123-M1 (dsDNA)
DNA 1: B5 DNA 1 with T40C, T45A
DNA 2: B5 DNA 2 with A13T, A18G
Consider B6, for which the binding result with PcRsmA was “no binding”.

B7: AflR-RsmA (dsDNA)
DNA 1: CGACTGACACAAGAAATAACAATTC
DNA 2: GAATTGTTATTTCTTGTGTCAGTCG
Turning to B7, the binding result with PcRsmA is recorded as “binds”.

B8: AP1-brlA (dsDNA)
DNA 1: AAAACAATACAATTTACTAAAGTCCACTGGGCA
DNA 2: TGCCCAGTGGACTTTAGTAAATTGTATTGTTTT
For B8, the binding result with PcRsmA is listed as “no binding”; in the data set with PcYap1 it was “binds”.

B9: AP1-brlA-Mut (dsDNA)
DNA 1: B8 DNA 1 with T15G, A20G
DNA 2: B8 DNA 2 with T14C, A19C
On to B9, for which the binding result with PcRsmA and with PcYap1 was “no binding” throughout.

B10: PTA1-WT (dsDNA)
DNA 1: GCCAGTGTAAAATTAGTAACCGTATCTC
DNA 2: GAGATACGGTTACTAATTTTACACTGGC
For B10, the binding result was “no binding” with PcRsmA and “binds” with PcYap1.

B11: RsmA-2B (dsDNA)
DNA 1: CAGTAAGCATCTGGGCTGCAAGCGTATAATGTCTCCAG
DNA 2: CTGGAGACATTATACGCTTGCAGCCCAGATGCTTACTG
In the case of B11, the binding result in the data set with PcRsmA is “no binding”.
